Experimental data from patent publication US20110009316A1.

Columns and labels:
MutAla = MutAla (UniProt P15692)
MutGln = MutGln (UniProt P15692)
[1] = target: commercially available recombinant VEGF165 protein (R&D Systems) (UniProt P15692)
[2] = target: VEGF165 wild type synthesized in COS-1 cells (UniProt P15692)
[3] = target: commercially available recombinant VEGF165 protein (R&D Systems) (UniProt P15692); assay: cell-based or functional assay
[4] = target: VEGF165 wild type synthesized in COS-1 cells (UniProt P15692); assay: cell-based or functional assay

Sequence of MutPro (chain, as listed by the source): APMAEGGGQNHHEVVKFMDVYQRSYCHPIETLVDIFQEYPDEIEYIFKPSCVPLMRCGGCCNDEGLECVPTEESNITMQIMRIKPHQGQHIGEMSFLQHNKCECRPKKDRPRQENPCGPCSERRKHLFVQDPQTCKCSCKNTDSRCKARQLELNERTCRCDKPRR
Sequence of MutLys-Pro (chain, as listed by the source): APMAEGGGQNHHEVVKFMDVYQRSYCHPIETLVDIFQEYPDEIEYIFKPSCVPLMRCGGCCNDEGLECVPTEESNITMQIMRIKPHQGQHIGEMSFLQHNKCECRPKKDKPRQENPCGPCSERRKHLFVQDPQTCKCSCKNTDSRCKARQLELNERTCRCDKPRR

Row | Substance | degradation on incubation with plasmin [0.01 U/ml], Western blotting and immunodetection (MutPro) | degradation on incubation with plasmin [0.01 U/ml], Western blotting and immunodetection (MutAla) | degradation on incubation with plasmin [0.01 U/ml], Western blotting and immunodetection (MutGln) | degradation on incubation with plasmin [0.01 U/ml], Western blotting and immunodetection [1] | degradation on incubation with plasmin [0.01 U/ml], Western blotting and immunodetection [2] | degradation on incubation with plasmin [0.01 U/ml], Western blotting and immunodetection (MutLys-Pro) | loss of biological activity (BrdU incorporation into HUVE cells) 20 minutes after incubation with plasmin [3] [%] | remaining biological activity (BrdU incorporation into HUVE cells) after 240 minutes with plasmin (% of the initial activity) [3] | loss of biological activity (BrdU incorporation into HUVE cells) 20 minutes after incubation with plasmin [4] [%] | remaining biological activity (BrdU incorporation into HUVE cells) after 240 minutes with plasmin (% of the initial activity) [4]
1 | plasmin | also show a comparable stability of the signal bands at 45 and 42 kDA after incubation with plasmid for 240 minutes | the mutated protein shows no change in the migration behaviour up to 240 minutes after incubation | also show a comparable stability of the signal bands at 45 and 42 kDA after incubation with plasmid for 240 minutes | the degradation pattern is similar to that of the commercially obtainable VEGF165 | shows degradation of the growth factor after only 15 minutes | also show a comparable stability of the signal bands at 45 and 42 kDA after incubation with plasmid for 240 minutes | – | – | – | –
2 | plasmin (enzyme) | – | – | – | – | – | – | > 20 | 50 | > 20 | 50
